This series has as its system MS2 coat protein. Put plainly: apparent KD of MS2 coat protein; designed switch direction (-1 OFF switch, 1 ON switch): 1; higher = weaker reporter binding. The essentials:
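Apparent KD, taken as the median over clusters for each design, was obtained by curve-fitting normalised cluster fluorescence. Designed RNA switches had been transcribed on Illumina chips by stalled E. coli RNA polymerase and titrated with SNAP-549-labelled MS2 coat protein, doubling from 0.7 or 1.5 nM to 3 µM.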

Where [1] appears, read: Eterna round: R95, input ligand: FMN 200 uM.
The mark [2] stands for this setting: Eterna round: R95, input ligand: microRNA oligo, concentration not stated.
[3] abbreviates: Eterna round: R95, input ligand: none.
The mark [4] stands for this setting: input ligand: microRNA oligo, concentration not stated.

Regarding “UGGAUCUAGGCUUGCCUGGGUCCAUGCUGACAUGAGGAUCACCCAUGUGCAUCCUACAAGCUUUUUGCUUGUCUGCC (puzzle: Sensor for hsa-mir-208a)”, the “apparent KD of MS2 coat protein” value reads like this: under setting [1], 146 nM; under setting [2], 122 nM; under setting [3], 93.7 nM.

As to “UGGCUCAGACGAGGAUAUGGUCAUGGCGCUUCGGCGCAUACAUGAGGAUCACCCAUGUAGGGUGAUCAGAAGGCGUCUGAGCCA [SSNG2/9-A2] (Eterna round: R96, puzzle: Same State NG 2)”, the “apparent KD of MS2 coat protein” value stood at 87.2 nM (input ligand: FMN 200 uM), 573 nM under setting [4] and 715 nM (input ligand: none).

With “UGGCUGAGUCGAGGAUAUGAUCUUCAUAUAUAUACAUGAGGAUCACCCAUGUAUAAUUACAUGGAUCAGAAGGCGACUCAGCCA [SSNG2/13-A1] (Eterna round: R96, puzzle: Same State NG 2)”, the “apparent KD of MS2 coat protein” value under setting [4] was found to be 22.9 nM.

For the sequence “UGGUAACAUGAGGAUCACCCAUGUCAAAUGAAUCGAGGAUAUGGGAACUAACAACACAAACUAGAAGGCGAACUUG [Altered State 1-9 - Jieux - Same State 1] (puzzle: Same State 1)”, the “apparent KD of MS2 coat protein” value is, setting by setting: under setting [1], 32.6 nM; under setting [2], 39.6 nM; under setting [3], 91.5 nM.

As for “UGGUACAUGGGAGGAUAUCAUGUAGAAACAUGAGGAUCACCCAUGUUGAUGGAGACAUCGGAGAUUGAGAAGGCCCAUGUACCU [JL SSNG1 3.57] (Eterna round: R96, puzzle: Same State NG 2)”, the “apparent KD of MS2 coat protein” value runs as follows: (input ligand: FMN 200 uM) 15.6 nM; under setting [4], 33.6 nM; (input ligand: none) 46 nM.

With “UGGUACAUGGGAGGAUAUGGGCAAGGGACAUGAGGAUCACCCAUGUAUUAAAUGCCGAGAGGCAUCUAGAAGGCCCAUGUACCU [JL SSNG1 3.88] (Eterna round: R96, puzzle: Same State NG 2)”, the “apparent KD of MS2 coat protein” value by setting is: (input ligand: FMN 200 uM) 17.8 nM; under setting [4], 79.8 nM; (input ligand: none) 173 nM.

As for “UGGUACAUGGGAGGAUAUGGGCAUGAGACAUGAGGAUCACCCAUGUUAUAAAAGCCGAGAGGCAUCUAGAAGGCCCAUGUACCU [JL SSNG1 3.91] (Eterna round: R96, puzzle: Same State NG 2)”, the “apparent KD of MS2 coat protein” value (input ligand: FMN 200 uM) was found to be 15.2 nM, the “apparent KD of MS2 coat protein” value under setting [4] was determined as 95.2 nM and the “apparent KD of MS2 coat protein” value (input ligand: none) came out at 139 nM.

With “UGUAAACAUGAGGAUCACCCAUGUUUUUUCAUGGGAGGAUAUCUGAGUUAAGUAUAUUAAGGAGAAGGCCUAUUGU [× ×•×ª×• ×ž×“×™× ×” × ×—×ª-02] (puzzle: Same State 1)”, the “apparent KD of MS2 coat protein” value runs as follows: under setting [1], 83.8 nM; under setting [2], 78 nM; under setting [3], 286 nM.

On to “UGUACCUGCACAGGAUAUCAUGCGAAAAUUGCGUGAGAAGGGUGAAUACUGUCUUUCUAAGAGUACAUGAGGAUCACCCAUGUA [SameState NG1 #61] (Eterna round: R96, puzzle: Same State NG 1)”, for which the “apparent KD of MS2 coat protein” value (input ligand: FMN 200 uM) was found to be 156 nM, the “apparent KD of MS2 coat protein” value under setting [4] is 91.8 nM and the “apparent KD of MS2 coat protein” value (input ligand: none) was 119 nM.

For “UGUCCAGCCUGAGCUGGACAAAAGCAUGUACAUGAGGAUCACCCAUGUUCAUGUACAAGCUUUUUGCUCGUCUUAUU [salish99_208a_r3_048] (puzzle: Sensor for hsa-mir-208a)”, the “apparent KD of MS2 coat protein” value stood at 465 nM under setting [1], 14.1 nM under setting [2] and 491 nM under setting [3].

Regarding “UGUGUCAUAGGUUUUUUAGCUCGUCUGAUACAUGAGGAUCACCCAUGUUAUAGCCCUGUGCUUGCGCAGGGCUGAGG [JL shm-2.xx] (puzzle: Sensor for hsa-mir-208a)”, the “apparent KD of MS2 coat protein” value amounted to 50.2 nM under setting [1], 36.6 nM under setting [2] and 56.7 nM under setting [3].

As for “UGUUGUAUUACAGGAUAUCUAGUAUGUUUAUUUAGAGAAGGGUAUUCACAUGAGGAUCACCCAUGUAUAUACGAGGAAGUUGUG [JMF's solution 38] (Eterna round: R96, puzzle: Same State NG 1)”, the “apparent KD of MS2 coat protein” value under setting [4] stood at 30.8 nM.

Turning to “UGUUGUAUUACAGGAUAUCUAGUAUUAUUAUUUAGAGAAGGGUAUUCACAUGAGGAUCACCCAUGUAUAUACGAGGAAGUUGUG [JMF's solution 39] (Eterna round: R96, puzzle: Same State NG 1)”, the “apparent KD of MS2 coat protein” value under setting [4] was 28.2 nM.

For “UGUUGUAUUACAGGAUAUCUAUUAGUUAUAUUUAGAGAAGGGUAUUCACAUGAGGAUCACCCAUGUAUAUACGAGGAAGUUGUG [JMF's solution 91] (Eterna round: R96, puzzle: Same State NG 1)”, the “apparent KD of MS2 coat protein” value under setting [4] turned out to be 42.3 nM.

Consider “UGUUGUAUUACAGGAUAUCUAUUGUUUUUGUUUAGAGAAGGGUAUUCACAUGAGGAUCACCCAUGUAUAUACGAGGAAGUUGUG [JMF's solution 80] (Eterna round: R96, puzzle: Same State NG 1)”, for which the “apparent KD of MS2 coat protein” value under setting [4] stood at 45 nM.

For “UUAAAACAUGAGGAUCACCCAUGUAAUAUAAUGGGAGGAUAUCUGAUUUAAUUAAAUUUAAGAGAAGGCCUAAAUU [Mat - Same State 1 - Mod of Eli - D55] (puzzle: Same State 1)”, the “apparent KD of MS2 coat protein” value amounted to 28.9 nM under setting [1], 128 nM under setting [2] and 169 nM under setting [3].

In the case of “UUAAAACAUGAGGAUCACCCAUGUCAACAAAGUCGAGGAUAUGGGCAAAUAAAAUAAGAACCAGAAGGCGAAUAAC [salish99_SS1_r3_007] (puzzle: Same State 1)”, the “apparent KD of MS2 coat protein” value is, setting by setting: under setting [1], 43.9 nM; under setting [2], 422 nM; under setting [3], 390 nM.

Regarding “UUAAGCCACGGGCAGGAUAUGUAUUAAAGUACAUGAGGAUCACCCAUGUGCAGGUGUAACACCUGACAGAAGGGCCAAUCGCGGC [Soondi - 3] (puzzle: Same State 2)”, the “apparent KD of MS2 coat protein” value runs as follows: under setting [1], 16 nM; under setting [2], 68 nM; under setting [3], 72.7 nM.

Take “UUAAUAAUGUUAGGAUAUACAUGAGGAAUCCUCGUAGAAGGAACAUGACAUGAGGAUCACCCAUGUAGCGCUCCGUAGAGCGCA [Mat - Same State NG 1 - JL mod - D45] (Eterna round: R96, puzzle: Same State NG 1)”: the “apparent KD of MS2 coat protein” value runs as follows: (input ligand: FMN 200 uM) 1600 nM; under setting [4], 53.2 nM; (input ligand: none) 164 nM.

For the sequence “UUAAUUAAUUAAUUAUACAUGAGGAUCACCCAUGUAAGUGAUCAGGAUAUCAGCUCGAUUAGAGCUGAGAAGGGAUACAUGAAU [SSNG3/12-A2] (Eterna round: R96, puzzle: Same State NG 3)”, the “apparent KD of MS2 coat protein” value was found to be 94.4 nM (input ligand: FMN 200 uM), 88.3 nM under setting [4] and 139 nM (input ligand: none).

In the case of “UUACUCAUGUAAGGAUAUGCAGCCGAAACGGCUGCAGAAGGUACUAUAAUACAUGAGGAUCACCCAUGUAAAAUAUAUAAAGUU [Mat - Same State NG 1 - JL mod - D96] (Eterna round: R96, puzzle: Same State NG 1)”, the “apparent KD of MS2 coat protein” value came out at 33.9 nM (input ligand: FMN 200 uM), 33.6 nM under setting [4] and 28.2 nM (input ligand: none).

As to “UUACUCAUGUAAGGAUAUGCAGCCGAAACGGCUGCAGAAGGUACUAUAAUACAUGAGGAUCACCCAUGUCAAAAUAAUUAAAAC [Mat - Same State NG 1 - JL mod - D72] (Eterna round: R96, puzzle: Same State NG 1)”, the “apparent KD of MS2 coat protein” value came to 34.8 nM (input ligand: FMN 200 uM), 26 nM under setting [4] and 26.9 nM (input ligand: none).

For “UUAUAACAUGAGGAUCACCCAUGUCAUCUAAGUCGAGGAUAUGGGCAAAUAUAAUAAGAACCAGAAGGCGAAUAUU [Mat - Same State 1 - Mod of UCT - D33] (puzzle: Same State 1)”, the “apparent KD of MS2 coat protein” value by setting is: under setting [1], 141 nM; under setting [2], 14.2 nM; under setting [3], 49.9 nM.

With “UUCCCAUCGGGAGGAUAUGGUUCCUUAUUGGUUCUAGAAGGUCCAACAUGAGGAUCACCCAUGUGGGAGUGGUCUAAUGACCUC [SS NG10LRO05] (Eterna round: R96, puzzle: Same State NG 1)”, the “apparent KD of MS2 coat protein” value turned out to be 889 nM (input ligand: FMN 200 uM), 256 nM under setting [4] and 702 nM (input ligand: none).

For “UUCCUACAUGAGGAUCACCCAUGUGACGCCUCGAUAGGAUAUGCGUGUGCCUUGGCGCAUGCAGAAGGAUUGUAGC [JL Aveso mod 8] (puzzle: Same State 1)”, the “apparent KD of MS2 coat protein” value runs as follows: under setting [1], 224 nM; under setting [2], 27.6 nM; under setting [3], 21.4 nM.

For the sequence “UUCUCAUUUACAUGAGGAUCACCCAUGUUUUUUUGUCAGAAAUAGGAUAUAGGUCUCUCGUUUUACUAGAAGGAUUUCUUUAUU [JR_SSNG3_Sub088] (Eterna round: R96, puzzle: Same State NG 3)”, the “apparent KD of MS2 coat protein” value (input ligand: FMN 200 uM) came to 146 nM, the “apparent KD of MS2 coat protein” value under setting [4] was 134 nM and the “apparent KD of MS2 coat protein” value (input ligand: none) came to 145 nM.

On to “UUGAAGAAUUAAGGAUAUCGAGUCAAGAUGUUAAACAUGAGGAUCACCCAUGUGGGUUGCGGUAUCGAGAAGGUAAAUAACAAG [Mat - Same State NG 2 - JL mod - D53] (Eterna round: R96, puzzle: Same State NG 2)”, for which the “apparent KD of MS2 coat protein” value (input ligand: FMN 200 uM) was 23.3 nM, the “apparent KD of MS2 coat protein” value under setting [4] was determined as 23.6 nM and the “apparent KD of MS2 coat protein” value (input ligand: none) is 38.2 nM.

With “UUGAAGAAUUAAGGAUAUUGAAUACAUAUGUUUAACAUGAGGAUCACCCAUGUGGGUUGCGGUAUCGAGAAGGUAAAUUAAUAG [Mat - Same State NG 2 - JL mod - D9] (Eterna round: R96, puzzle: Same State NG 2)”, the “apparent KD of MS2 coat protein” value stood at 142 nM (input ligand: FMN 200 uM), 98.4 nM under setting [4] and 118 nM (input ligand: none).

These data come from the supplement of paper PMC9170038.
